The values that follow come from PMC5701251.

In the assay the target is gp49d, deletion mutant of the phage LKA1 tailspike protein LKA1gp49 without the N-terminal particle-binding domain (residues 1-167) (Pseudomonas phage LKA1). Put plainly: crystal structure; gp49d crystallised in 8% PEG 6000, 0.8 M NaCl, 0.1 M Na acetate pH 3.5 at 18 °C, 20 mg/ml; molecular replacement with gp61d; homotrimer.

As usually defined, the stoichiometry N is the number of molecules, sites or subunits per partner or assembly. “gp49d, deletion mutant of the phage LKA1 tailspike protein LKA1gp49 without the N-terminal particle-binding domain (residues 1-167) (domain or fragment)”: the stoichiometry N is 3.
